From US12616648B2, “Cosmetic composition” (GIVAUDAN SA, priority 2018, dated 2026) come the findings set out here.

The subject of the assay is Normal Human Keratinocytes (NHEKs). Briefly: NHEK scratch assay (wound healing). The class given is cell-based. The following applies: HB-EGF 1 ng/ml (positive control), overnight pre-incubation, 8 h after scratch. As to the method: Normal Human Keratinocytes (NHEKs) were seeded at 200′000 cells per well pre-coated with Type I collagen in 12-wells culture plates in the presence of keratinocyte growth medium (KGM, Lonza) supplemented with growth factors such as hydrocortisone, transferrin, epinephrine, bovine pituitary extract (BPE), recombinant human epidermal growth factor (rhEGF) and insulin. At confluence, cells were pre-incubated with the Patchouli stem extract of Example 1 at a concentration of 0.5% (v/v) or heparin-binding epidermal growth factor (HB-EGF) at 1 ng/ml (positive control) overnight in keratinocyte basal medium without supplement. After this pre-conditioning phase, the cell monolayer sticking to the bottom of the well was scratched with a P200 sterile cone, followed by two washes with phosphate buffered saline (PBS). The NHEK were then again stimulated with Patchouli extract at 0.5% or HB-EGF at 1 ng/ml for 8 h in basal medium.
The wound healing process was analyzed by pictures recording at T0 and T8h using inverting optical microscope (Zeiss). After image analysis, the percentage of scratch closing was determined relative to untreated condition.

B1: HB-EGF: heparin-binding epidermal growth factor, positive control in the scratch assay (protein, UniProt Q99075 63-148, looked up)
Heparin-binding EGF-like …: DLQEADLDLLRVTLSSKPQALATPNKEEHGKRKKKGKGLGKKRDPCLRKYKDFCIHGECKYVKELRAPSCICHPGYHGERCHGLSL
B1: the “wound healing (scratch closing relative to untreated condition)” value is reported as “about +60%”.
